{
  "source": "the Human Domainome abundance scans (Beltran et al. 2025)",
  "parents": {"B1": {"name": "SWI/SNF complex subunit SMARCC1, residues 620 to 663; numbered along this chain, Q92922 (parent)", "chain": "GREWTEQETLLLLEALEMYKDDWNKVSEHVGSRTQDECILHFLR"}},
  "note": "± gives the uncertainty stated by the source.",
  "data": [
    {"variants_of": "B1", "experiment": "abundance fitness (aPCA) (normalised: wild type 0, dead -1); higher = more abundant; growth selection in yeast, the domain comes from the species named", "details": "Homo sapiens", "values": [
      {"variant": "GREWTEQETLLLLEALEMYKDCWNKVSEHVGSRTQDECILHFLR", "note": "[D22C]", "abundance fitness": "-0.122 ± 0.098"},
      {"variant": "GREWTEQETLLLLEALEMYKDYWNKVSEHVGSRTQDECILHFLR", "note": "[D22Y]", "abundance fitness": "-0.714 ± 0.16"},
      {"variant": "GREWTEQETLLLLEALEMYKDLWNKVSEHVGSRTQDECILHFLR", "note": "[D22L]", "abundance fitness": "-0.44 ± 0.12"},
      {"variant": "GREWTEQETLLLLEALEMYKDEWNKVSEHVGSRTQDECILHFLR", "note": "[D22E]", "abundance fitness": "-0.017 ± 0.1"},
      {"variant": "GREWTEQETLLLLEALEMYKDVWNKVSEHVGSRTQDECILHFLR", "note": "[D22V]", "abundance fitness": "-0.526 ± 0.14"},
      {"variant": "GREWTEQETLLLLEALEMYKDSWNKVSEHVGSRTQDECILHFLR", "note": "[D22S]", "abundance fitness": "0.04 ± 0.1"},
      {"variant": "GREWTEQETLLLLEALEMYKDQWNKVSEHVGSRTQDECILHFLR", "note": "[D22Q]", "abundance fitness": "-0.112 ± 0.073"},
      {"variant": "GREWTEQETLLLLEALEMYKDIWNKVSEHVGSRTQDECILHFLR", "note": "[D22I]", "abundance fitness": "-0.733 ± 0.17"},
      {"variant": "GREWTEQETLLLLEALEMYKDAWNKVSEHVGSRTQDECILHFLR", "note": "[D22A]", "abundance fitness": "-0.447 ± 0.096"},
      {"variant": "GREWTEQETLLLLEALEMYKDGWNKVSEHVGSRTQDECILHFLR", "note": "[D22G]", "abundance fitness": "-0.419 ± 0.097"},
      {"variant": "GREWTEQETLLLLEALEMYKKDWNKVSEHVGSRTQDECILHFLR", "note": "[D21K]", "abundance fitness": "0.294 ± 0.076"},
      {"variant": "GREWTEQETLLLLEALEMYKQDWNKVSEHVGSRTQDECILHFLR", "note": "[D21Q]", "abundance fitness": "0.067 ± 0.08"},
      {"variant": "GREWTEQETLLLLEALEMYKIDWNKVSEHVGSRTQDECILHFLR", "note": "[D21I]", "abundance fitness": "-0.601 ± 0.34"},
      {"variant": "GREWTEQETLLLLEALEMYKWDWNKVSEHVGSRTQDECILHFLR", "note": "[D21W]", "abundance fitness": "-0.578 ± 0.23"},
      {"variant": "GREWTEQETLLLLEALEMYKHDWNKVSEHVGSRTQDECILHFLR", "note": "[D21H]", "abundance fitness": "0.102 ± 0.087"},
      {"variant": "GREWTEQETLLLLEALEMYKEDWNKVSEHVGSRTQDECILHFLR", "note": "[D21E]", "abundance fitness": "0.225 ± 0.071"},
      {"variant": "GREWTEQETLLLLEALEMYKRDWNKVSEHVGSRTQDECILHFLR", "note": "[D21R]", "abundance fitness": "0.268 ± 0.059"},
      {"variant": "GREWTEQETLLLLEALEMYKSDWNKVSEHVGSRTQDECILHFLR", "note": "[D21S]", "abundance fitness": "-0.078 ± 0.088"},
      {"variant": "GREWTEQETLLLLEALEMYKMDWNKVSEHVGSRTQDECILHFLR", "note": "[D21M]", "abundance fitness": "-0.363 ± 0.17"},
      {"variant": "GREWTEQETLLLLEALEMYKGDWNKVSEHVGSRTQDECILHFLR", "note": "[D21G]", "abundance fitness": "-0.046 ± 0.088"},
      {"variant": "GREWTEQETLLLLEALEMYKNDWNKVSEHVGSRTQDECILHFLR", "note": "[D21N]", "abundance fitness": "0.227 ± 0.16"},
      {"variant": "GREWTEQETLLLLEALEMYKPDWNKVSEHVGSRTQDECILHFLR", "note": "[D21P]", "abundance fitness": "0.019 ± 0.13"},
      {"variant": "GREWTEQETLLLLEALEMYKVDWNKVSEHVGSRTQDECILHFLR", "note": "[D21V]", "abundance fitness": "-0.419 ± 0.094"},
      {"variant": "GREWTEQETLLLLEALEMYKTDWNKVSEHVGSRTQDECILHFLR", "note": "[D21T]", "abundance fitness": "-0.17 ± 0.14"},
      {"variant": "GREWTEQETLLLLEALEMYKADWNKVSEHVGSRTQDECILHFLR", "note": "[D21A]", "abundance fitness": "-0.066 ± 0.068"},
      {"variant": "GREWTEQETLLLLEALEMYKDDINKVSEHVGSRTQDECILHFLR", "note": "[W23I]", "abundance fitness": "-0.255 ± 0.23"},
      {"variant": "GREWTEQETLLLLEALEMYKDDLNKVSEHVGSRTQDECILHFLR", "note": "[W23L]", "abundance fitness": "-0.528 ± 0.086"},
      {"variant": "GREWTEQETLLLLEALEMYKDDDNKVSEHVGSRTQDECILHFLR", "note": "[W23D]", "abundance fitness": "-0.374 ± 0.15"},
      {"variant": "GREWTEQETLLLLEALEMYKDDKNKVSEHVGSRTQDECILHFLR", "note": "[W23K]", "abundance fitness": "-0.503 ± 0.44"},
      {"variant": "GREWTEQETLLLLEALEMYKDDVNKVSEHVGSRTQDECILHFLR", "note": "[W23V]", "abundance fitness": "-0.783 ± 0.13"},
      {"variant": "GREWTEQETLLLLEALEMYKDDPNKVSEHVGSRTQDECILHFLR", "note": "[W23P]", "abundance fitness": "-0.535 ± 0.11"},
      {"variant": "GREWTEQETLLLLEALEMYKDDENKVSEHVGSRTQDECILHFLR", "note": "[W23E]", "abundance fitness": "-0.577 ± 0.15"},
      {"variant": "GREWTEQETLLLLEALEMYKDDMNKVSEHVGSRTQDECILHFLR", "note": "[W23M]", "abundance fitness": "-0.32 ± 0.11"},
      {"variant": "GREWTEQETLLLLEALEMYKDDTNKVSEHVGSRTQDECILHFLR", "note": "[W23T]", "abundance fitness": "-0.786 ± 0.12"},
      {"variant": "GREWTEQETLLLLEALEMYKDDCNKVSEHVGSRTQDECILHFLR", "note": "[W23C]", "abundance fitness": "-0.48 ± 0.089"},
      {"variant": "GREWTEQETLLLLEALEMYKDDHNKVSEHVGSRTQDECILHFLR", "note": "[W23H]", "abundance fitness": "-0.696 ± 0.2"},
      {"variant": "GREWTEQETLLLLEALEMYKDDGNKVSEHVGSRTQDECILHFLR", "note": "[W23G]", "abundance fitness": "-0.631 ± 0.077"},
      {"variant": "GREWTEQETLLLLEALEMYKDDANKVSEHVGSRTQDECILHFLR", "note": "[W23A]", "abundance fitness": "-0.712 ± 0.12"},
      {"variant": "GREWTEQETLLLLEALEMYKDDNNKVSEHVGSRTQDECILHFLR", "note": "[W23N]", "abundance fitness": "-0.579 ± 0.13"},
      {"variant": "GREWTEQETLLLLEALEMYKDDFNKVSEHVGSRTQDECILHFLR", "note": "[W23F]", "abundance fitness": "-0.186 ± 0.14"},
      {"variant": "GREWTEQETLLLLEALEMYMDDWNKVSEHVGSRTQDECILHFLR", "note": "[K20M]", "abundance fitness": "-0.118 ± 0.12"},
      {"variant": "GREWTEQETLLLLEALEMYVDDWNKVSEHVGSRTQDECILHFLR", "note": "[K20V]", "abundance fitness": "-0.123 ± 0.062"},
      {"variant": "GREWTEQETLLLLEALEMYTDDWNKVSEHVGSRTQDECILHFLR", "note": "[K20T]", "abundance fitness": "-0.14 ± 0.073"},
      {"variant": "GREWTEQETLLLLEALEMYCDDWNKVSEHVGSRTQDECILHFLR", "note": "[K20C]", "abundance fitness": "-0.375 ± 0.09"},
      {"variant": "GREWTEQETLLLLEALEMYQDDWNKVSEHVGSRTQDECILHFLR", "note": "[K20Q]", "abundance fitness": "-0.278 ± 0.086"},
      {"variant": "GREWTEQETLLLLEALEMYSDDWNKVSEHVGSRTQDECILHFLR", "note": "[K20S]", "abundance fitness": "-0.2 ± 0.059"},
      {"variant": "GREWTEQETLLLLEALEMYIDDWNKVSEHVGSRTQDECILHFLR", "note": "[K20I]", "abundance fitness": "-0.019 ± 0.1"},
      {"variant": "GREWTEQETLLLLEALEMYGDDWNKVSEHVGSRTQDECILHFLR", "note": "[K20G]", "abundance fitness": "-0.188 ± 0.06"},
      {"variant": "GREWTEQETLLLLEALEMYHDDWNKVSEHVGSRTQDECILHFLR", "note": "[K20H]", "abundance fitness": "0.021 ± 0.1"},
      {"variant": "GREWTEQETLLLLEALEMYWDDWNKVSEHVGSRTQDECILHFLR", "note": "[K20W]", "abundance fitness": "-0.737 ± 0.13"},
      {"variant": "GREWTEQETLLLLEALEMYFDDWNKVSEHVGSRTQDECILHFLR", "note": "[K20F]", "abundance fitness": "-0.226 ± 0.11"},
      {"variant": "GREWTEQETLLLLEALEMYNDDWNKVSEHVGSRTQDECILHFLR", "note": "[K20N]", "abundance fitness": "-0.105 ± 0.11"},
      {"variant": "GREWTEQETLLLLEALEMYPDDWNKVSEHVGSRTQDECILHFLR", "note": "[K20P]", "abundance fitness": "0.058 ± 0.064"},
      {"variant": "GREWTEQETLLLLEALEMYRDDWNKVSEHVGSRTQDECILHFLR", "note": "[K20R]", "abundance fitness": "-0.234 ± 0.062"},
      {"variant": "GREWTEQETLLLLEALEMYDDDWNKVSEHVGSRTQDECILHFLR", "note": "[K20D]", "abundance fitness": "-0.062 ± 0.1"},
      {"variant": "GREWTEQETLLLLEALEMYEDDWNKVSEHVGSRTQDECILHFLR", "note": "[K20E]", "abundance fitness": "-0.085 ± 0.1"},
      {"variant": "GREWTEQETLLLLEALEMYLDDWNKVSEHVGSRTQDECILHFLR", "note": "[K20L]", "abundance fitness": "-0.618 ± 0.089"},
      {"variant": "GREWTEQETLLLLEALEMYADDWNKVSEHVGSRTQDECILHFLR", "note": "[K20A]", "abundance fitness": "-0.139 ± 0.064"}
    ]}
  ]
}
